Molecular target: human somatostatin receptor 2, Tango construct (human) (UniProt P30874)
Sequence (P30874 whole entry): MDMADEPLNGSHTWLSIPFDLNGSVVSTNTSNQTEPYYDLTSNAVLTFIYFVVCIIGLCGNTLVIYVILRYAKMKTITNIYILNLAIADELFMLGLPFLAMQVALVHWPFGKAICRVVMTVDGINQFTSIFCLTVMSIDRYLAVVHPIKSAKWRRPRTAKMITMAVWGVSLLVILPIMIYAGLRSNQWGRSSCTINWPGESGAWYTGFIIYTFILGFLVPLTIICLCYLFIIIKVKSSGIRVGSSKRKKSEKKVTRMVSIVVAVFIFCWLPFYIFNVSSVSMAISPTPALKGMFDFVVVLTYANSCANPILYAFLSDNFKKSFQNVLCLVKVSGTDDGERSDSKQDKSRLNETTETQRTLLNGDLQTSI

octreotide (peptide) was tested, and the EC50, PRESTO-Tango β-arrestin recruitment assay was 0.9 nM.
